The text below walks through data of publication PMC4777826, “Crystal Structure of the CTP1L Endolysin Reveals How Its Activity Is Regulated by a Secondary Translation Product*^([image sbox.jpg])” (The Journal of Biological Chemistry, 2015).

Series [1] concerns the target CTP1L endolysin K190S/G191S, ribosomal binding site knock-out (RBSKO) (bacteriophage ΦCTP1). The series is described as follows: native MS; CBDHis titrated to 10 μM full-length CTP1L RBSKO at molar ratios 1:1, 1:2, 1:3 and 1:6 (full-length:CBDHis), 150 mM ammonium acetate pH 7.4; ratios of species from simulated peaks, three measurements.
Series [2] has as its target CBDHis, CTP1L(195-274) with a C-terminal His tag (bacteriophage ΦCTP1). The series is described as follows: native MS; nano-ESI of each purified sample by itself (wild-type gene products, CBDHis, RBSKO mutants), 150 mM ammonium acetate pH 7.4.
Series [3] deals with CD27L endolysin RBSKO mutant (E181S/G182S) (bacteriophage (targets Clostridium difficile)) (UniProt B6SBV8). Described as above.
The target in series [4] is CTP1L endolysin, full-length (wild type) (bacteriophage ΦCTP1). The series is described as above.
Series [5] has the same target. As to the kind of experiment: native MS; nano-ESI of the sample made from the codon-optimised CTP1L gene with the silent C→G back mutation (less truncated CBD made), 150 mM ammonium acetate pH 7.4.
Series [6] concerns the target truncated C-terminal cell wall binding domain of CTP1L (secondary translation product) (bacteriophage ΦCTP1). As to the kind of experiment: native MS; nano-ESI of each purified sample by itself (wild-type gene products, CBDHis, RBSKO mutants), 150 mM ammonium acetate pH 7.4.
Series [7] deals with the molecule itself. Described as above.

In general, stoichiometry N refers to a count of units in the complex or per binding partner. As for “CBDHis, CTP1L(195-274) with a C-terminal His tag (domain or fragment)”, in series [1], the ratio of species, 1:1 heterodimer (full-length:CBDHis 1:1) (ratio (total 1.0)) is 0.26; the ratio of species, 1:1 heterodimer (full-length:CBDHis 1:2) (ratio (total 1.0)) was 0.29; the ratio of species, 1:1 heterodimer (full-length:CBDHis 1:3) (ratio (total 1.0)) is 0.27; the ratio of species, 1:1 heterodimer (full-length:CBDHis 1:6) (ratio (total 1.0)) was 0.31. Moreover, in series [1], the ratio of species, 1 FLCTP1L: 3 CBDHis heterotetramer (full-length:CBDHis 1:1) (ratio (total 1.0)) was 0.09; the ratio of species, 1 FLCTP1L: 3 CBDHis heterotetramer (full-length:CBDHis 1:2) (ratio (total 1.0)) is 0.19; the ratio of species, 1 FLCTP1L: 3 CBDHis heterotetramer (full-length:CBDHis 1:3) (ratio (total 1.0)) is 0.27; the ratio of species, 1 FLCTP1L: 3 CBDHis heterotetramer (full-length:CBDHis 1:6) (ratio (total 1.0)) was 0.38. Also, in series [1], the ratio of species, 2 FLCTP1L: 2 CBDHis heterotetramer (full-length:CBDHis 1:1) (ratio (total 1.0)) was 0.3; the ratio of species, 2 FLCTP1L: 2 CBDHis heterotetramer (full-length:CBDHis 1:2) (ratio (total 1.0)) was 0.32; the ratio of species, 2 FLCTP1L: 2 CBDHis heterotetramer (full-length:CBDHis 1:3) (ratio (total 1.0)) is 0.26; the ratio of species, 2 FLCTP1L: 2 CBDHis heterotetramer (full-length:CBDHis 1:6) (ratio (total 1.0)) is 0.17. Besides, in series [1], the ratio of species, free FLCTP1L monomer (full-length:CBDHis 1:1) (ratio (total 1.0)) was 0.4; the ratio of species, free FLCTP1L monomer (full-length:CBDHis 1:2) (ratio (total 1.0)) was 0.2; the ratio of species, free FLCTP1L monomer (full-length:CBDHis 1:3) (ratio (total 1.0)) is 0.2; the ratio of species, free FLCTP1L monomer (full-length:CBDHis 1:6) (ratio (total 1.0)) is 0.14. In series [2], this molecule had a stoichiometry N of 2.

In series [3], “CD27L endolysin RBSKO mutant (E181S/G182S) (from UniProt B6SBV8 1-270) (enzyme)” had a stoichiometry N of 2.

“truncated C-terminal cell wall binding domain of CTP1L (secondary translation product)”: the ratio of species, free FLCTP1L monomer (wild-type sample) (ratio (total 1.0)) in series [4] came to 0.03.

As for “truncated C-terminal cell wall binding domain of CTP1L (secondary translation product) (domain or fragment)”, in series [5], the ratio of species, 1:1 heterodimer (C→G sample) (ratio (total 1.0)) came to 0.09; the ratio of species, 2 FLCTP1L: 2 CBD heterotetramer (C→G sample) (ratio (total 1.0)) stood at 0.62; the ratio of species, free FLCTP1L monomer (C→G sample) (ratio (total 1.0)) was determined as 0.28. Also, in series [4], the ratio of species, 1:1 heterodimer (wild-type sample) (ratio (total 1.0)) stood at 0.12; the ratio of species, 1 FLCTP1L: 3 CBD heterotetramer (wild-type sample) (ratio (total 1.0)) is 0.14; the ratio of species, 2 FLCTP1L: 2 CBD heterotetramer (wild-type sample) (ratio (total 1.0)) was 0.72. The molecule also came in with a stoichiometry N in series [6] of 4.

B1: CD27L endolysin, full-length (wild type) (enzyme, UniProt B6SBV8 1-270, looked up)
chain: MKICITVGHSILKSGACTSADGVVNEYQYNKSLAPVLADTFRKEGHKVDVIICPEKQFKTKNEEKSYKIPRVNSGGYDLLIELHLNASNGQGKGSEVLYYSNKGLEYATRICDKLGTVFKNRGAKLDKRLYILNSSKPTAVLIESFFCDNKEDYDKAKKLGHEGIAKLIVEGVLNKNINNEGVKQMYKHTIVYDGEVDKISATVVGWGYNDGKILICDIKDYVPGQTQNLYVVGGGACEKISSITKEKFIMIKGNDRFDTLYKALDFINR
notes: CD27L endolysin, a bacteriophage endolysin that targets Clostridium difficile; The wild-type sample also holds the truncated CBD; also called FLCD27L; source: E. coli BL21(DE3), pET15b, purified (Ni-NTA)
Take B1: in series [7], the “stoichiometry N” value is 2.
